Data reported in the supplement of paper PMC7877785.
± gives the uncertainty stated by the source.

Test: self-splicing fitness, log relative to wild type (ln ratio); higher = more splicing; Tetrahymena group I intron in knt gene, E. coli kanamycin selection, DiMSum; sequences stand for … in CUCUCU…GGAGGGAAAAGUUAUCAGGCAUGCACCUGGUAGCUAGUCUUUAAACCAAUAGAUUGCAUCGGUUUAAAAGGCAAGACCGUCAAAUUGCGGGAAAGGGGUCAACAGCCGUUCAGUACCAAGUCUCAGGGGAAACUUUGAGAUGGCCUUGCAAAGGGUAUGGUAAUAAGCUGACGGACAUGGUCCUAACCACGCAGCCAAGUCCUAAGUCAACAGAUCUUCUGUUGAUAUGGAUGCAGUUCACAGACUAAAUGUCGGUCGGGGAAGAUGUAUUCUUCUCAUAAGAUAUAGUCGGACCUCUCCUUAAUGGGAGCUAGCGGAUGAAGUGAUGCAACACUGGAGCCGCUGGGAACUAAUUUGUAUGCGAAAGUAUAUUGAUUAGUUUUGGAGUACUCGUGGUCG
Procedure, shortened: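 Pooled colonies went to amplicon sequencing on an Illumina HiSeq 2500 after six replicate transformations. The plates were LB agar with 100 μg/mL carbenicillin, 50 μM IPTG and 0.2% rhamnose, with or without 25 μg/mL kanamycin, incubated overnight at 37°C or 30°C. The E. coli BL21(DE3) library had all eight P1ex-region intron nucleotides randomised, the intron placed in the knt kanamycin-resistance gene on pET-22b(+). DiMSum fitness is the error-weighted combination of replicate fold changes, kanamycin against none, normalised to wild type.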

Sequence | self-splicing fitness (ln) (37 °C) | self-splicing fitness (ln) (30 °C)
UCUAAGCAAUAUUACGGUCC | -0.662 ± 0.27 | –
UAUUAGCAAUAUUACGCGCC | – | -1.23 ± 0.4
CCAAAGCAAUAUUACGAGGU | -1.71 ± 0.13 | -4.24 ± 0.2
UAUUAGCAAUAUUACGUUAA | -1.53 ± 0.18 | -1.91 ± 0.36
UCAUAGCAAUAUUACGGUCU | -2.31 ± 0.14 | -3.49 ± 0.16
GGGUAGCAAUAUUACGCUAA | -0.0326 ± 0.25 | -1.32 ± 0.29
UUACAGCAAUAUUACGUAGG | -1.19 ± 0.096 | -1.12 ± 0.066
UUAUAGCAAUAUUACGGGUU | -1.13 ± 0.15 | -3.8 ± 0.26
AAAUAGCAAUAUUACGUUGU | -1.02 ± 0.12 | -4.44 ± 0.29
AUCCAGCAAUAUUACGGAGG | -0.607 ± 0.13 | -2.21 ± 0.097
AAGUAGCAAUAUUACGUACC | -0.0515 ± 0.15 | -0.997 ± 0.16
CUGGAGCAAUAUUACGUAGA | -2.67 ± 0.2 | –
GGCUAGCAAUAUUACGGCCA | -0.776 ± 0.26 | -1.53 ± 0.21
UGAUAGCAAUAUUACGAUUA | -0.000856 ± 0.1 | -0.749 ± 0.11
UGCGAGCAAUAUUACGCUAA | -2.48 ± 0.26 | -1.92 ± 0.21
CACUAGCAAUAUUACGUCGA | -1.48 ± 0.1 | -1.58 ± 0.13
CCGCAGCAAUAUUACGCAGU | -1.48 ± 0.17 | -2.96 ± 0.18
UUCAAGCAAUAUUACGGUCA | 0.00589 ± 0.098 | -0.929 ± 0.097
UGUGAGCAAUAUUACGCACA | -2.84 ± 0.34 | -2.63 ± 0.29
GUCAAGCAAUAUUACGACAG | -2.93 ± 0.33 | -4.39 ± 0.33
CAGAAGCAAUAUUACGAGCA | -1.3 ± 0.38 | –

Sequence | self-splicing fitness (ln) (37 °C) | self-splicing fitness (ln) (30 °C)
AUUAAGCAAUAUUACGUGAU | -1.34 ± 0.12 | -1.74 ± 0.089
GCCAAGCAAUAUUACGCGCC | -2.56 ± 0.32 | -3.75 ± 0.27
ACGAAGCAAUAUUACGCCUG | 0.217 ± 0.12 | -0.445 ± 0.095
AGUCAGCAAUAUUACGAAGU | -0.0211 ± 0.096 | -1.48 ± 0.084
AUAAAGCAAUAUUACGGAGU | -0.598 ± 0.088 | -0.717 ± 0.072
AAUGAGCAAUAUUACGAACU | -0.57 ± 0.16 | -1.11 ± 0.14
CGGCAGCAAUAUUACGCGAA | -1.68 ± 0.15 | -2.67 ± 0.13
GGUAAGCAAUAUUACGAUAA | -0.994 ± 0.13 | -1.43 ± 0.092
AUCCAGCAAUAUUACGAAUA | -0.957 ± 0.13 | -1.44 ± 0.13
UGGGAGCAAUAUUACGACUU | -0.921 ± 0.11 | -2.15 ± 0.091
CGGUAGCAAUAUUACGGUCU | -0.251 ± 0.093 | -0.673 ± 0.068
GCACAGCAAUAUUACGAACU | -0.167 ± 0.072 | -0.419 ± 0.056
AAAGAGCAAUAUUACGCACU | -0.12 ± 0.15 | -1.46 ± 0.12
CAGUAGCAAUAUUACGUGAU | -1.2 ± 0.15 | -4.22 ± 0.34
AUGAAGCAAUAUUACGGAAU | -0.789 ± 0.091 | -0.972 ± 0.074
GGAGAGCAAUAUUACGGUUU | -1.15 ± 0.092 | -2.6 ± 0.094
CUAAAGCAAUAUUACGUCGU | -2.88 ± 0.22 | -4.09 ± 0.2
ACUAAGCAAUAUUACGGAUA | -2.54 ± 0.2 | -2.38 ± 0.16
ACCUAGCAAUAUUACGCCAG | – | -1.83 ± 0.22
AUGUAGCAAUAUUACGAUAA | -1 ± 0.15 | -1.76 ± 0.13
GUAAAGCAAUAUUACGACUC | 1.06 ± 0.15 | 0.441 ± 0.1

Sequence | self-splicing fitness (ln) (37 °C) | self-splicing fitness (ln) (30 °C)
UAGAAGCAAUAUUACGCGUA | -0.472 ± 0.12 | -0.436 ± 0.11
CCUCAGCAAUAUUACGUGCC | -2.39 ± 0.31 | -2.39 ± 0.17
UAAAAGCAAUAUUACGUCUG | 0.201 ± 0.075 | -0.0205 ± 0.058
GGUGAGCAAUAUUACGGGAU | -2.62 ± 0.34 | -3.28 ± 0.41
UUUCAGCAAUAUUACGAACG | 0.41 ± 0.14 | -0.381 ± 0.11
CUCGAGCAAUAUUACGGUGU | -2.7 ± 0.31 | -2.83 ± 0.33
AUGGAGCAAUAUUACGUAAA | -2.09 ± 0.26 | -3.85 ± 0.26
AUAUAGCAAUAUUACGUGAC | -2.85 ± 0.32 | –
CAAAAGCAAUAUUACGAUUU | -0.732 ± 0.075 | -1.18 ± 0.061
GUGCAGCAAUAUUACGAAUG | -2.01 ± 0.19 | -2.95 ± 0.16
CAAAAGCAAUAUUACGGGCA | -1.99 ± 0.14 | -2.88 ± 0.16
GAUAAGCAAUAUUACGACCA | -0.0759 ± 0.21 | -1.18 ± 0.14
CGGAAGCAAUAUUACGCACA | 0.386 ± 0.16 | -1.07 ± 0.15
CUGGAGCAAUAUUACGGUAC | -2.84 ± 0.27 | -2.41 ± 0.18
GUUUAGCAAUAUUACGCCGG | – | -2.37 ± 0.45
GACCAGCAAUAUUACGAUUC | -0.543 ± 0.08 | -0.023 ± 0.075
UUUAAGCAAUAUUACGAUGC | – | -1.41 ± 0.37
CCUCAGCAAUAUUACGUUUG | -2.15 ± 0.14 | -1.46 ± 0.093
CGGUAGCAAUAUUACGGGAU | – | -3.86 ± 0.47
AACUAGCAAUAUUACGGCAG | -0.755 ± 0.095 | -1.09 ± 0.094
UCGUAGCAAUAUUACGCGUG | -0.648 ± 0.096 | -0.861 ± 0.1
